According to a protein production outcome set (Wang et al. 2014):

Assay: label from the status in PepcDB records

Sequence | protein production
MRKAYLMESIQPWIEKFIKQAQQQRSQSTKDYPTSYRNLRVKLSFGYGNFTSIPWFAFLGEGQEASNGIYPVILYYKDFDELVLAYGISDTNEPHAQWQFSSDIPKTIAEYFQATSGVYPKKYGQSYYACSQKVSQGIDYTRFASMLDNIINDYKLIFNSGKSVIPPMSKTESYCLEDALNDLFIPETTIETILKRLTIKKNIILQGPPGVGKTFVARRLAYLLTGEKAPQRVNMVQFHQSYSYEDFIQGYRPNGVGFRRKDGIFYNFCQQAKEQPEKKYIFIIDEINRANLSKVFGEVMMLMEHDKRGENWSVPLTYSENDEERFYVPENVYIIGLMNTADRSLAVVDYALRRRFSFIDIEPGFDTPQFRNFLLNKKAEPSFVESLCQKMNELNQEISKEATILGKGFRIGHSYFCCGLEDGTSPDTQWLNEIVMTDIAPLLEEYFFDDPYKQQKWTNKLLGDS | failed
MTPGEVRRLYFIIRTFLSYGLDELIPKMRITLPLRLWRYSLFWMPNRHKDKLLGERLRLALQELGPVWIKFGQMLSTRRDLFPPHIADQLALLQDKVAPFDGKLAKQQIEAAMGGLPVEAWFDDFEIKPLASASIAQVHTARLKSNGKEVVIKVIRPDILPVIKADLKLIYRLARWVPRLLPDGRRLRPTEVVREYEKTLIDELNLLRESANAIQLRRNFEDSPMLYIPEVYPDYCSEGMMVMERIYGIPVSDVAALEKNGTNMKLLAERGVQVFFTQVFRDSFFHADMHPGNIFVSYEHPENPKYIGIDCGIVGSLNKEDKRYLAENFIAFFNRDYRKVAELHVDSGWVPPDTNVEEFEFAIRTVCEPIFEKPLAEISFGHVLLNLFNTARRFNMEVQPQLVLLQKTLLYVEGVGRQLYPQLDLWKTAKPFLESWIKDQVGIPALVRAFKEKAPFWVEKMPELPELVYDSLRQGKYLQHSVDKIARELQSNHVRQGQSRYFLGIGATLVLSGTFLLVSRPEWGLMPGWLMAGGLIAWFVGWRKTR | failed
MKIIFSASPANRAAAYALRQAVFVEERGISADVEFDVKDTDQCEYAVLYLQPDLPITTLRLEPQADHVMRFGRVCTRKAYRGHGWGRQLLTAAEEWATQRGFTHGEIHGELTAQRFYELCGYRVTAGPYDEDGAPVVIMHKQLL | not failed
VEPSEENSKDCVVCQNGTVNWVLLPCRHTCLCDGCVKYFQQCPMCRQFVQESFAL | not failed
MENEKILNPIIIQRADPMIYKHNDGYYYFTASVPEYDRIEVRKAKTIEGLRNAEPVDVWRRHESGEMSNLIWAPEIHFINGAWYIYFAAAPDKNIEDDTFNHRMFVIQNENENPFTGNWVEKGRIKTAWESFSLDATIFEHNEKLYYVWAQQDINIKGHSNIYIAEMENPWTLKTKPVMLTKPELEWEIKGFWVNEGPAVLKKNGKIFITYSASATDVNYCIGMLTAEENSNLLDKNSWTKSQTPVFKTSMENHQYGPGHNSFTVSEDGKHDVIVYHARNYTEIKGDPLYDPNRHTRAQIINWREDGTPDFGVPEVDSLEIETPVKA | not failed
MKGNSFGEIISSEDIGLRKGADSSHEIITSIPSGARVNIIDKMSKDWYKVSYKDFTGYLQAKDIRVLGLEHHHHHH | failed
MTYKDYTGLDRTELLSKVRHMMSDKRFNHVLGVERAAIELAERYGYDKEKAGLAALLHDYAKELSDDEFLRLIDKYQPDPDLKKWGNNIWHGLVGIYKIQEDLAIKDQDILAAIAKHTVGSAQMSTLDKIVYVADYIEHNRDFPGVEEARELAKVDLNKAVAYETARTVAFLASKAQPIYPKTIETYNAYIPYLD | not failed
MSQLEIRDLWASIDGETILKGVNLVVPKGEVHALMGPNGAGKSTLGKILAGDPEYTVERGEILLDGENILELSPDERARKGLFLAFQYPVEVPGVTIANFLRLALQAKLGREVGVAEFWTKVKKALELLDWDESYLSRYLNEGFSGGEKKRNEILQLLVLEPTYAVLDETDSGLDIDALKVVARGVNAMRGPNFGALVITHYQRILNYIQPDKVHVMMDGRVVATGGPELALELEAKGYEWLKEKVKEGA | not failed
MNSHFLTNDLILEVLSRLPLKSVARFHCVSKRWASMFGSPYFKELFLTRSSAKPRLLFAIVQNGVWRFFSSPRLEKSSSTLVATAEFHMKLSPNNLRIYHDNTPRYFSIGYASGLIYLYGDRYEATPLICNPNTGRYTILPKCYTYRKAFSFFGFDPIDKQYKALSMIYPSGPGHSKILTFGDGDMNWKKIKYRVLHDIYSQGICINGVLYYLGDTSDWDNDHDVTSGNVLVCFDLRSESFTFIGLECGQLINYKGKLAVIFWDDVDDDDVKDDAIDEMHVWVLEDVEKKEWSKYAYTWTEDKLYRSQVSVVGMTASGEIVFSMRKYTSEQPFYVYYFNPERNNLRRVEIQGFEAFTKFGTVYTFVDHVEDLNVYNLKHFKSVHPPSVQPEYDESDSESEEDREIII | failed
MVGGVEELSIEQLASSISTYKEQLEQNFVCGLEFRIGEEKLNVRQLLSEDPRNSEYADMEKELKEVIALTEEVLATAKQNEISLSDAGVSAEATPGSPDLEGAWEKTGLRNDPIHEGKFPVGTKVQAVFSDDGEWYDATIEAHTANGYFVAYDEWGNKEEVDPDNVRPIEQNAIVEAERLAQATKNALKRKIEKAASSDYQTKTLPAKLKIDPNDPEDVKIAKRKKIHAFKSKARFEQLEVVQNKKQNDWQQFQTTKAKTKKVGFFTGRKKESIFKSPEDPFGKVGVTGSGKGLTDFQKREKHLHLKSGNAEGTDE | failed
MDGDGSSFEQFIMPPSALDRLASLHIEYPMLFQLSNVSVEKTSHCGVLEFTADEGLVYLPYWMMQNMSLEEGDVMQVKNISLVKGTYIKLQPHTQDFLDISNPKAILETTLRSYSCLTTGDTIMVPYNNKQYYINVVEAKPSSAVSIIETDCEVDFAPPLDYKEPEKPQKLTPSNKRPLQVKEEEEPASKVPKFTPFTGSGKRLDGKAQTQTEPEDTKQQEKPTENGKDDEKLSVTTPRQISGKLVFGSNSKSAAKETAKVDDPKNIVQESSTKSDEAKFKVFTGKKYSLNG | failed
GQTAKLVSLRDISDRKRMENQLRENQNKYYRLLENLDNGVIVHNANAEIVYANPKAESFLGLTDLEGRDIDDEYWMFFDKEGEKLEKEEFPVAQVLANQSSLKNFEMGIYRPDTDQLLWAYINAYPEFYNE | failed
METNKYLELIKQELANMPDFVKEYNLGTSHSLTTTYQYLTEIRRFFDWLRQNNIASVSSNKEIEVTTLENLQRNDVMLYIHHLKHTKNQQGRLNSPTTINRSINALRSLYKFLTITSDNNHGEPYFDRNVMLKINSLNDTKTLNYRAHVLESHMYMGDLKYQFLDFIENEYIHKCNKQSLPAFKKNHERDMAIIALILGTGIRVSECVGVNMRNINLKDAMLDVTRKGGQKDSVPIAEWTIPYLKKYREIRADHYHAEKEDIAFFLTRWHGKTKRITTNAVEKMVNKYSAAFGKPLTPHKLRHTLASELYEVTKDQVLVAQQLGQKGTTATDLYTHVDQKKQKAALNKINRYKSSD | failed
VDMLLVGAGIMSATLAVLLKELDPNLKMEVVELQESGAIESSNPWNNAGTGHAGLCELNYTPQSADGSIDIKKAVGINTMFEVSKQFWSHLVAKGTFGSPKTFINPVPHLSFVRGSEGIAYLKKRFESLTKHHAFETMVYSEDKATLAEWMPLMMPGRPADEAIAATRVEGGTDVNFGALTNQLLQHLAQQPGAQIRYNQKVTHLRRADNGWRVTVKDTRNGGDREIQARFVFLGAGGGALPLLQLSGIPEGKGFGGFPVSGQWLRCDNPEIVKQHQAKVYSQAEVGSPPMSVPHLDTRVVDGKKSLLFGPYAGFSTKFLRHGSFLDLPLSVRPGNILPMLSVARDNMDLTRYLIGQVMQSPEQRLEALRKFYPEARAEDWRLEVAGQRVQIIKKDPKKGGILQFGTELVAAHDGSIAALLGASPGASVTVSIMLGLIERCFPEQARSPEWSAKLKEIFPAREKELESDAELYRSVSSRCSEVLELTAKNDVQAPVNAE | failed
